Source: patent US20130209439A1, “INHIBITORS OF PDE4 BINDING TO HSP20” (THE UNIVERSITY COURT OF THE UNIVERSITY OF GLASGOW, priority 2010, published 2013)
Where no end group is shown, it is not given here.

What was measured:
[1] = target: T1, PDE4D5-HSP20 complex (Homo sapiens, UniProt O14558); experiment: Immunoprecipitation of HSP20 probed for PDE4D5, HEK293 cell lysate; type: binding; conditions: HEK293 cells transfected with HSP20 and PDE4D5, increasing peptide concentrations
T1 construct: containing the open reading frame of Hsp20 in pENTR221 vector, was used to generate pcDNA6.2-Hsp20; expressed in transfected cells; host or cells: HEK293 cells
T1 sequence (O14558 1-160): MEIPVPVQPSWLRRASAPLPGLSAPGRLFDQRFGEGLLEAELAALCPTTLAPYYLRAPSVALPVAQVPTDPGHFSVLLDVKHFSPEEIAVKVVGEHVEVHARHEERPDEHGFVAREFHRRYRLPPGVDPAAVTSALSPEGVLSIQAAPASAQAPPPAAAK
Source text: (§1) FIG. 6. Peptide disruption of the PDE4D-HSP20 complex promotes PKA phosphorylation on Ser16. A, Upper panel. HEK293 cells were transfected with HSP20 and PDE4D5. Immunoprecipitation of HSP20 done in the presence increasing concentrations of Peptide 906 (SEQ ID NO: 36) and Peptide control (SEQ ID NO: 37) were probed for PDE4D5. Lower panel. Densitometric analysis of amount of PDE4D5 in HSP20 immunoprecipitates normalised to expression level. Data representative of n=3. B, Purified preparations of HSP20-His and PDE4D5-GST were subject to an ELISA assay containing increasing amounts of ‘Peptide 906’ and ‘peptide control’. C, Upper panel, HSP20 was transfected into HEK293 cells and treated with ‘Peptide 906’ for indicated times. Cellular lysates were blotted for HSP20 and phospho-HSP20. Middle panel, HSP20 was transfected into HEK293 cells and treated with ‘Peptide 906’ or ‘peptide control’ for indicated times. Cellular lysates were blotted for HSP20 and phospho-HSP20. Lower panel, Densitometric analysis of phosphorylation of HSP20 normalised to expression level (n=3).
HEK293B2 cells are a stable cell line overexpressing the GFP-tagged β2AR were cultured as previously described^48. […] Protein concentration of lysates were determined using the Bradford assay and all samples were equalised for protein concentration. […]

[2] = test system: neonatal cardiac myocytes; experiment: Cardiac myocyte cell size, manual cross-sectional area; type: cell-based, rat; conditions: 24 hour isoprenaline 10 μM, 30 min pre-treatment with 10 μM peptide
Experimental: FIG. 7. Peptide disruption of the PDE4D-HSP20 complex attenuates the hypertrophic response triggered by constant […]-agonist treatment. A, Upper panel. The area covered by isolated cardiac myocytes was used as a measure of cell size. Lower panel, Graphical depiction of the mean areas (N=100) of cells following 24 hours of indicated treatments. B, impedance measurements were used to calculate continuous normalised cell index using exCELLigence technology Normalised mean (n=4) cell index after 24 hours of indicated treatments.
Cardiomyocytes were plated out on gelatin (Sigma) pre-coated 6-well plates and placed in an incubator at 37° C. and an atmosphere of 5% CO2. After 24 h the cardiomyocytes were cultured in a serum-free condition for 48 h before experiments. The cardiomyocytes were then challenged for 24 h with either 10 μM isoprenaline alone or isoprenaline following a 30 min pre-treatment with 10 μM rolipram, 10 μM bs906 or 10 μM control peptide. Thereafter, cell size was determined on phase-contrast microscope. […] from randomly selected microscope images (400×) were captured digitally and analysed. Cross-sectional area was determined by the following formula: cross-sectional area=(radius)^2×π. Values are expressed as means±SE of five separate culture preparations. A f-test was performed to compare the two groups, and the P values are indicated.

[3] = target: T2, His-HSP20 / GST-PDE4D5 (Homo sapiens, UniProt O14558); experiment: Hsp20/PDE4D5 ELISA assay with purified proteins; type: binding; conditions: increasing amounts of peptide
T2 construct: made in house; host or cells: E. coli (BL21 for His-Hsp20)
T2 sequence (O14558 1-160): T1 sequence (O14558 1-160)
Source text: as §1
His-HSP20 and GST-PDE4D5 were purified as previously described. […] Plates were read as soon as possible using the luminescence program on a Packard Fusion plate reader (1 s reading per well). […]

Substance: Peptide 906: stearoylated, cell-permeable disrupter peptide of PDE4D5 residues E468-K492 (SEQ ID NO: 36) (ENHHLAVGFKLLQEENSDIFQNLTK; also: stearoylated, site not given here)
- association between PDE4D5 and HSP20 in immunoprecipitation from cellular lysate [1]: attenuated the association between PDE4D5 and HSP20
- cell size (cross-sectional area) of cardiac myocytes [2]: could be rescued
- association between PDE4D5 and HSP20 in ELISA with purified proteins [3]: attenuated the association between PDE4D5 and HSP20
